Data on one substance can be found in article doi:10.1101/2023.01.30.525655.

Assay [1] has as its target MIF-6xHis (human macrophage migration inhibitory factor, hexahistidine-tagged) (human) (UniProt P14174). As to the kind of experiment: SEC. In general terms: Size exclusion chromatography separates by hydrodynamic size, large species first.
Assay [2] deals with MDL1-6xHis (Arabidopsis thaliana MIF/D-DT-like protein 1, hexahistidine-tagged) (Arabidopsis thaliana). Put plainly: SEC.
Assay [3] has the same target. Put plainly: crystal structure.
The target in assay [4] is RED-NHS-MIF-6xHis (human MIF-6xHis labelled with the RED-NHS dye) (human) (UniProt P14174). As to the kind of experiment: MST.
Sequence of RED-NHS-MIF-6xHis (human MIF-6xHis labelled with the RED-NHS dye) (human) (P14174 2-115): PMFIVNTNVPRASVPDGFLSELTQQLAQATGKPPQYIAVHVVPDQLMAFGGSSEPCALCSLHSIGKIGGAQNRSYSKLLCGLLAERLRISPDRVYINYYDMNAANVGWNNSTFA

Sequence of MIF-6xHis (human macrophage migration inhibitory factor, hexahistidine-tagged) (human) (P14174 2-115): as above

Broadly, the stoichiometry N is a count of units in the complex or per binding partner. As a reminder, the Kd is the constant that tells how readily two partners part at equilibrium. Higher therefore signals lower affinity. As for “MDL1-6xHis (Arabidopsis thaliana MIF/D-DT-like protein 1, hexahistidine-tagged) (natural protein)”, the fraction of the mixture in the hetero-hexamer in assay [1] came out at 0.33. For the same substance, the stoichiometry N in assay [2] and in assay [3] was 3 throughout. Further, the Kd in assay [4] was less than 5 µM.
